Measurements taken from PMC10873621.

Target: RNF20 (UniProt Q5VTR2)
Experiment: co-IP with anti-Myc, anti-Flag blot
Details: reference: Flag-LSD1-WT; sites T810,S817,T841,S849,S851

binding against the reference: weaker
Substance: LSD1 (from UniProt O60341) Flag-LSD1-5A
